From patent US6653460B1 (priority 1996, dated 2003) come the findings set out here.

Assay [1] addresses T1, N-type calcium channels (IMR-32 neuroblastoma cells) (Homo sapiens, UniProt Q00975).
T1 construct: host or cells: IMR-32 (differentiated)
The assay is described as follows: cell-based.

Assay [2] has as its target class A (P/Q) calcium channels (Oryctolagus cuniculus, UniProt P27884). As to the kind of experiment: Two-electrode voltage clamp of barium currents in Xenopus oocytes expressing class A alpha-1 subunits. The note with it: 4 mM barium.
Experimental: In these experiments, barium currents (4 mM barium, no added calcium, in medium) through the calcium channels were measured for technical reasons, in accordance with methods known in the art.
The cRNA for the alpha-1 subunit described in Mori et al. (1991) was expressed in Xenopus oocytes by standard methods (Goldin, 1992). For expression, cRNA for the alpha-1 subunit was co-injected with cRNA for the rabbit alpha2 and delta (Ellis et al. 1988) and human beta (Williams et al. 1992) subunits in equimolar ratios. Approximately 50 nL was injected per oocyte, with a total cRNA concentration of 0.8 μg/μL.
Currents were recorded, by two-electrode voltage clamp using a solution of 4 mM barium chloride, 38 mM potassium chloride, 36 mM tetraethylammonium chloride, 5 mM 4-aminopyridine, 0.4 mM niflumic acid, 5 mM HEPES (pH 7.5), and 0.1 mg/mL bovine serum albumin. Data were sampled at 5 kHz and filtered at 1 kHz utilizing a OC-725B voltage-clamp amplifier. (Warner Instruments) interfaced to PCLAMP software (Axon Instruments, Foster City, Calif.) for acquisition and analysis. Leak and capacitance currents were subtracted on-line using a P/4 protocol. Voltage pulses to 0 mV from a holding potential of −80 mV were used to elicit currents every 10 s.
Assay [3] concerns the target class B voltage-gated calcium channel (human alpha-1B subunit) stably expressed in S3 cells (HEK 293) (human) (UniProt Q00975). The assay is described as follows: cell-based or functional assay.
For the next assay, the system named is DBA/2 mice. To be noted: mouse, in vivo.
For assay [4], the target named is T2, class E calcium channels (192C cells) (Homo sapiens, UniProt Q15878).
T2 construct: expressed in transfected cells; host or cells: HEK 293 (192C cells)
Type of assay: cell-based.

Another assay deals with class E calcium channels (Homo sapiens, UniProt Q15878). The assay is described as follows: Class E channel blocking, summary statements (two separate measures of channel blocking activity). Type of assay: cell-based. To be noted: no method given.
For assay [5], the target named is L-type calcium channels of GH3 cells (rat). As to the kind of experiment: cell-based or functional assay.

Several values for one entry are separate records, joined by “and”; a condition that tells them apart may be missing. Equal values may be shown once. Read-outs that look alike come from different tables or passages of the source.

Sequence of class A (P/Q) calcium channels (P27884 whole entry): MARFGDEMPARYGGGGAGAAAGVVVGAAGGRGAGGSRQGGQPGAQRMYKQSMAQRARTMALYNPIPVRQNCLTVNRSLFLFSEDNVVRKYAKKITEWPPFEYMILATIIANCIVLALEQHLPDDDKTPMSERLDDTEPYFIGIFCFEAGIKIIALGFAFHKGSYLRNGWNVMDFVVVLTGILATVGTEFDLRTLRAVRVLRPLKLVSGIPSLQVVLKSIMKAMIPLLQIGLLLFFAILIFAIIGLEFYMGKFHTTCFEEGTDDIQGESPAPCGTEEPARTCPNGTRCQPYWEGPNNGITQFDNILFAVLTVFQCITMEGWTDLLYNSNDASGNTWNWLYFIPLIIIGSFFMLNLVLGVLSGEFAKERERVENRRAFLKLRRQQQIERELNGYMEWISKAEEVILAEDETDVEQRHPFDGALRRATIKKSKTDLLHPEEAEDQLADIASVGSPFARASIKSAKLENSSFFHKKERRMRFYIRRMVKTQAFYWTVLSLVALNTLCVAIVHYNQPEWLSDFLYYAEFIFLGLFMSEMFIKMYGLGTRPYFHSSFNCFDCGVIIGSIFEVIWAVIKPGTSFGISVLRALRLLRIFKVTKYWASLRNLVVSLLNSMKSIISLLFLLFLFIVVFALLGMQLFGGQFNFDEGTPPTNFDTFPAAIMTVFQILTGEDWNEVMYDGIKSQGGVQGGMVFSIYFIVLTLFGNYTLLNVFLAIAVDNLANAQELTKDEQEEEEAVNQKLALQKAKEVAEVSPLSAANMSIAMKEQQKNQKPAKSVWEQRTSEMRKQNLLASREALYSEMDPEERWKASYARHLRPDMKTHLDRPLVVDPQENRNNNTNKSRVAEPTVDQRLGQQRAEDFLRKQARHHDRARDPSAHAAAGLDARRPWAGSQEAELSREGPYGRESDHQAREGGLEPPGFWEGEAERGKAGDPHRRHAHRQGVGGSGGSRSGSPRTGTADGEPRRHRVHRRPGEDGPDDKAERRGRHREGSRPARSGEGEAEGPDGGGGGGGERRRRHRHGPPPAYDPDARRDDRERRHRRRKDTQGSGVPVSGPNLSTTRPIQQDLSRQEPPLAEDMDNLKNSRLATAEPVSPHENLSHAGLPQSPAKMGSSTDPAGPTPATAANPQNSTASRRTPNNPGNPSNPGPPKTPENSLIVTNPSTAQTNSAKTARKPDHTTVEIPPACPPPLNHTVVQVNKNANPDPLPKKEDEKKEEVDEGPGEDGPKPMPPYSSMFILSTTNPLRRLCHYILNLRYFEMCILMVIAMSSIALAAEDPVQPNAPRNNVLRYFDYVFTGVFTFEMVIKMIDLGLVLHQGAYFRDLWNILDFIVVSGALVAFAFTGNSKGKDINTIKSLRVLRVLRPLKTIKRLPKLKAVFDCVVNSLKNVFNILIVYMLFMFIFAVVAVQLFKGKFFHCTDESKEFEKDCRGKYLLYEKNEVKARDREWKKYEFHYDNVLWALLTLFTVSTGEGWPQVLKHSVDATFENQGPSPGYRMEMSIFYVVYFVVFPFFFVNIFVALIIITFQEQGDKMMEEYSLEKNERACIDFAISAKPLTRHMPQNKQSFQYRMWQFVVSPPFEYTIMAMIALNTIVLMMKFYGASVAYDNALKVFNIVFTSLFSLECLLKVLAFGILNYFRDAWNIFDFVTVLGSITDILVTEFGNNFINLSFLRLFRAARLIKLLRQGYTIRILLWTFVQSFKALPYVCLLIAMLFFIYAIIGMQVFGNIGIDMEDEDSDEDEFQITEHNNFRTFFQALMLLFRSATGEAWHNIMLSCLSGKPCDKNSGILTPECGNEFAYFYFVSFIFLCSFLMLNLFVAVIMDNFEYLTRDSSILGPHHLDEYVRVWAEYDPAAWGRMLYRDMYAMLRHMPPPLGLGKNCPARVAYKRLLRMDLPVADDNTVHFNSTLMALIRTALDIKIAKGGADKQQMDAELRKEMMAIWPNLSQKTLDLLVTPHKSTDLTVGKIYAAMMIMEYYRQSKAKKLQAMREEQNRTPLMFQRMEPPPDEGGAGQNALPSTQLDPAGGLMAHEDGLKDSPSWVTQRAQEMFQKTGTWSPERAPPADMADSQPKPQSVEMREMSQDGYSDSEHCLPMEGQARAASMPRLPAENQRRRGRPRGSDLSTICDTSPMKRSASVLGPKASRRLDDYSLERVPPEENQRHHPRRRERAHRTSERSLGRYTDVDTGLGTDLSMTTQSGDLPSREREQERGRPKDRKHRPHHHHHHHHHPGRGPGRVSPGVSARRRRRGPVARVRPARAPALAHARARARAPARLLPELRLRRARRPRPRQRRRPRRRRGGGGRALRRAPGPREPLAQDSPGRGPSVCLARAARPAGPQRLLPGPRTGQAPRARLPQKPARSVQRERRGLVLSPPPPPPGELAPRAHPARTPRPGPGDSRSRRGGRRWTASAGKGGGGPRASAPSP
Sequence of class A (P/Q) calcium channels (P13806 27-960 partner limits assumed): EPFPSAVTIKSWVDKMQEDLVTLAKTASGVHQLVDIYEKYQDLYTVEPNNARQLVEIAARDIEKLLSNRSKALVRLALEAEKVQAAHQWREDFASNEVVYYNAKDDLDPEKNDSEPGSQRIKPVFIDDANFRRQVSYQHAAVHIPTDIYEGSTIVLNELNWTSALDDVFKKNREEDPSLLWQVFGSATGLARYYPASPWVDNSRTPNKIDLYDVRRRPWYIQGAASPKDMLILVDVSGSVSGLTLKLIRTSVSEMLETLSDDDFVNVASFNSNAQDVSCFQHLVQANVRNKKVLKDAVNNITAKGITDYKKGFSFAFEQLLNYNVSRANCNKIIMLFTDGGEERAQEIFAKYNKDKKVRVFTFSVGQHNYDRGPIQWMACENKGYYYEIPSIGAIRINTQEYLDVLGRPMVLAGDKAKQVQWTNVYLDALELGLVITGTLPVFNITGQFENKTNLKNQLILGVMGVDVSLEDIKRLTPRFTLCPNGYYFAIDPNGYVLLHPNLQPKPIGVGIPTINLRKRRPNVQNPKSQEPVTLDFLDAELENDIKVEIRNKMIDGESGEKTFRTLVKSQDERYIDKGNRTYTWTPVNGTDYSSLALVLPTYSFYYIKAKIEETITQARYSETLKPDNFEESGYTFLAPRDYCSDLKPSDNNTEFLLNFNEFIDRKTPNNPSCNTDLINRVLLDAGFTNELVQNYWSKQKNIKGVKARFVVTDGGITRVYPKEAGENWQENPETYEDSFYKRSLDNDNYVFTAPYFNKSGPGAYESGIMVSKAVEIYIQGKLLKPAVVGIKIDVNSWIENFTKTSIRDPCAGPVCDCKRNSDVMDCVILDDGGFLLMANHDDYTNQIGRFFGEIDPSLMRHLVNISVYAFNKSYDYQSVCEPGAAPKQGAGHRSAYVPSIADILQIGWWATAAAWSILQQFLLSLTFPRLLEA
Sequence of class A (P/Q) calcium channels (P13806 961-1106 partner limits assumed): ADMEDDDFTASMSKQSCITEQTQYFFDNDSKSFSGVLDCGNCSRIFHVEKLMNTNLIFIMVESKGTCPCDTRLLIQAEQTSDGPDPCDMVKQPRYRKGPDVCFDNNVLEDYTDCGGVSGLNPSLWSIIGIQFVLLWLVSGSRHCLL
Sequence of class A (P/Q) calcium channels (Q02641 whole entry partner): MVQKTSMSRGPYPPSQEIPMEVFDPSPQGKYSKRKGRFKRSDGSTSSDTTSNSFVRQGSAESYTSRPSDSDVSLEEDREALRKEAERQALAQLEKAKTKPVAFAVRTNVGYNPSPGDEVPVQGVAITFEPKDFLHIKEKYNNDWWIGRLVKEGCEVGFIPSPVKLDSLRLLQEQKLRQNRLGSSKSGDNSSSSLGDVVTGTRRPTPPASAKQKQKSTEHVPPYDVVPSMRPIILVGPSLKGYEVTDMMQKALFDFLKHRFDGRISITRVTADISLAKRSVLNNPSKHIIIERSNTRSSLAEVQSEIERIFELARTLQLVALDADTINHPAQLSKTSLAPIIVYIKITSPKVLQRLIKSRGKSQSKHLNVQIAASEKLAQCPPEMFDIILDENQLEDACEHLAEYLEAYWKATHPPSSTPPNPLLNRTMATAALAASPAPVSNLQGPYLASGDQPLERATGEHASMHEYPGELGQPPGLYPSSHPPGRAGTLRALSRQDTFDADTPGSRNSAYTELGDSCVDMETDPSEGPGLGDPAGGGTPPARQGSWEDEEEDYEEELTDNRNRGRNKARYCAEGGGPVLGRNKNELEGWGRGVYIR

With `CCCC[C@@H]1NC(=O)[C@H](CC(C)C)NC(=O)[C@H](CCCNC(=N)N)NC(=O)[C@H](CO)NC(=O)[C@@H]2CSSC[C@@H]3NC(=O)[C@H](CO)NC(=O)CNC(=O)[C@H]([C@@H](C)O)NC(=O)[C@H](CSSC[C@H](N)C(=O)N[C@@H](CCCCN)C(=O)NCC(=O)N[C@@H](CCCCN)C(=O)NCC(=O)N[C@@H](C)C(=O)N[C@@H](CCCCN)C(=O)N2)NC(=O)[C@H](CSSC[C@@H](C(N)=O)NC(=O)[C@H](CCCCN)NC(=O)CNC(=O)[C@H](CO)NC(=O)[C@H](CCCNC(=N)N)NC3=O)NC(=O)[C@H](CC(=O)O)NC(=O)[C@H](Cc2ccc(O)cc2)NC1=O` [SNX-194], in assay [1], the 50% inhibitory concentration (IC50) came to 1 nM and the “inhibition of remaining transient depolarization evoked increase in internal calcium” value is given as “nearly completely inhibited”. As to `[Cd]` [cadmium], in assay [2] (concentration not given), the “effect on class A (P/Q) barium current” value is “completely blocked”.

HG-1 peptide: in assay [3], the IC50, block of peak inward calcium current, whole cell patch clamp of S-3 cells turned out to be 800 nM. With “SNX-629: synthetic truncated HG-1 peptide corresponding to HG 1 (7-41), SEQ ID NO: 15 (CRYMFGGCSVNDDCCPRLGCHSLFSYCAWDLTFSD)”, in the assay on DBA/2 mice, the “ED50 for the anticonvulsant effect” value is “about 5 μg/mouse”. In addition, the “concentration inhibiting class E channels relative to that of HG-1 in the same assay” value in assay [4] is on record as “less than 20 times”. For “hanatoxin (ECRYLFGGCKTTSDCCKHEGCKFRDKTCAWDFTFS; listed as Grammostola spatulata)”, the “class E calcium channel antagonist activity” value in the assay with class E calcium channels is “neither of these peptides exhibits class E calcium channel antagonist activity”. For the molecule “omega-Aga-IIIA (from UniProt P33034 1-76) (peptide)”, in assay [5], the apparent IC50, depolarization evoked calcium signal at 60 seconds, INDO-1, GH3 cells (partial block) came out at 1.5 nM.

B1: Aga-IIIA (peptide)
peptide: SCIDIGGDCDGEKDDCQCCRRNGYCSCYSLFGYLKSGCKCVVGTSAEFQGICRRKARQCYNSDPDKCESHNKPKRR
Regarding B1, the “effect on class A (P/Q) barium current” value in assay [2] (60 nM) is recorded as “partially blocked”. Besides, in assay [1] (read-out: apparent IC50 for inhibition of depolarization evoked increase in internal calcium), the IC50 is 0.1 nM and ~0.1 nM.
